Data: paper PMC5207708

Assays:
MIER3 isoform 1 = MIER3 isoform 1 (UniProt Q7Z3K6); experiment: co-IP; HEK293 cells transfected with the myc-tagged protein; lysis in 1% Triton X-100, 150 mM NaCl, 20 mM Tris-Cl pH 7.5, 1 mM EDTA; IP with 9E10 anti-myc overnight at 4°C; endogenous HDAC1 and HDAC2 by Western; band densitometry (HDAC:MIER ratio); also with or without 12.5 μM Ins(1,4,5,6)P4 during the IP (no substantial difference)
MIER2 = MIER2 (UniProt Q8N344); experiment: as above
UniProt Q8N344, sequence (Q8N344 whole entry): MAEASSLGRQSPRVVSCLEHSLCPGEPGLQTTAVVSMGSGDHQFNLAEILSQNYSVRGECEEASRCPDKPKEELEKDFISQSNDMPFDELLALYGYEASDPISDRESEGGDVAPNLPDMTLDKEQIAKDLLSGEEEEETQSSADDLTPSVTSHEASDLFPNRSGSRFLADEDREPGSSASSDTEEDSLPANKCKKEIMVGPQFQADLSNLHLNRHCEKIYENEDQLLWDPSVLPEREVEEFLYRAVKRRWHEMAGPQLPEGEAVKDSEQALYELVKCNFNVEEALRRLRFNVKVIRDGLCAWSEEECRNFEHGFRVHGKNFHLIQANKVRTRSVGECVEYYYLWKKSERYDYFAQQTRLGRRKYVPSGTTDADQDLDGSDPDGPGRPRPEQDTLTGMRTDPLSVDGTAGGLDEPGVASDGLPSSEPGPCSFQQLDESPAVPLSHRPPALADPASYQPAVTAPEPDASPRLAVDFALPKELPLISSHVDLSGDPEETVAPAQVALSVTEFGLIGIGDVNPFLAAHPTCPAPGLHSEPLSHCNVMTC

UniProt Q7Z3K6, sequence (Q7Z3K6 whole entry, canonical isoform): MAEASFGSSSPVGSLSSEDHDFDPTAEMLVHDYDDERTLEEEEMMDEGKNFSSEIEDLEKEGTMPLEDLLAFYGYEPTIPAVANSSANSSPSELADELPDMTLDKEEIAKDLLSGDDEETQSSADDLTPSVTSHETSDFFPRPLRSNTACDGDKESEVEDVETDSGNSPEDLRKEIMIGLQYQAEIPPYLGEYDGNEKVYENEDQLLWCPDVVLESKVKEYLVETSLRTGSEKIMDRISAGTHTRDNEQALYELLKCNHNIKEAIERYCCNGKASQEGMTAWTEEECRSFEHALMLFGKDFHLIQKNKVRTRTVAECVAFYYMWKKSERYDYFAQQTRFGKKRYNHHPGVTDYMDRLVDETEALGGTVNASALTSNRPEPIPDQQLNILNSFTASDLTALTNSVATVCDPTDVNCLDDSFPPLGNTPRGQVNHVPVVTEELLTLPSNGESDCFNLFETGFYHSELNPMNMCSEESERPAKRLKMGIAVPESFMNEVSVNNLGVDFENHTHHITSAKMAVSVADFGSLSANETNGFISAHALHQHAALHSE

HDAC:MIER ratio in the immunoprecipitate, percent of that in the MIER1α complex (MIER3 isoform 1) | HDAC:MIER ratio in the immunoprecipitate, percent of that in the MIER1α complex (MIER2) | Substance
9% | – | HDAC1 (from UniProt Q13547 1-482) (HEK293 cells)
– | 20% | HDAC2 (from UniProt Q92769 1-488) (enzyme)
9% | – | HDAC2 (from UniProt Q92769 1-488)
